The supplement of paper PMC10724198
± gives the standard deviation of the averaged measurements.

Experiments:
Saccharomyces cerevisiae [1] = experiment: protein stability index of tFT-peptide fusion (C-terminal peptide) (PSI (0-1 scale)); higher = more stable (slower turnover)
Procedure: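 MPS profiling in S. cerevisiae of the tFT-X12 degron library: putative degron peptides plus stable controls, 12 aa, fused to the C-terminus of a sfGFP-mCherry timer. Cells are FACS-sorted into 8 mCherry/sfGFP bins and deep-sequenced. PSI runs from 0 (unstable) to 1 (stable). Backgrounds are wild type, das1Δ and doa10Δ at 30 °C, and wild type, das1Δ, cdc34-1 and cdc53-1 at 37 °C; 2-3 technical replicates each.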

Saccharomyces cerevisiae [2] = experiment: as above; conditions: genetic background: wild type; temperature: 30 C
[3] = genetic background: cdc34-1, temperature: 37 C
[4] = genetic background: cdc53-1, temperature: 37 C
[5] = genetic background: das1 deletion, temperature: 30 C
[6] = genetic background: das1 deletion, temperature: 37 C
[7] = genetic background: doa10 deletion, temperature: 30 C
[8] = genetic background: wild type, temperature: 30 C
[9] = genetic background: wild type, temperature: 37 C
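Note: PSI is a weighted mean of sequencing reads over stability bins, variants kept only with over 10 reads, mCherry proximal and sfGFP distal, peptide attached via GGGS linker.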

TEHIIAFKASVN
protein stability index (Saccharomyces cerevisiae [1]; [3]): 0.546 ± 0.0031
protein stability index (Saccharomyces cerevisiae [1]; [4]): 0.7284 ± 0.0037
protein stability index (Saccharomyces cerevisiae [1]; [5]): 0.626 ± 0.033
protein stability index (Saccharomyces cerevisiae [1]; [6]): 0.71 ± 0.01
protein stability index (Saccharomyces cerevisiae [1]; [7]): 0.0901 ± 0.025
protein stability index (Saccharomyces cerevisiae [1]; [8]): 0.104 ± 0.024
protein stability index (Saccharomyces cerevisiae [1]; [9]): 0.153 ± 0.028
protein stability index (Saccharomyces cerevisiae [2]): 0.214 ± 0.02

TFRVLFSVALLV
protein stability index (Saccharomyces cerevisiae [1]; [3]): 0.172 ± 0.0042
protein stability index (Saccharomyces cerevisiae [1]; [4]): 0.216 ± 0.0069
protein stability index (Saccharomyces cerevisiae [1]; [5]): 0.259 ± 0.024
protein stability index (Saccharomyces cerevisiae [1]; [6]): 0.3436 ± 0.0022
protein stability index (Saccharomyces cerevisiae [1]; [7]): 0.1804 ± 0.00079
protein stability index (Saccharomyces cerevisiae [1]; [8]): 0.182 ± 0.021
protein stability index (Saccharomyces cerevisiae [1]; [9]): 0.2319 ± 0.0022
protein stability index (Saccharomyces cerevisiae [2]): 0.212 ± 0.086

TGRLFVSLRVWY
protein stability index (Saccharomyces cerevisiae [1]; [3]): 0.321 ± 0.0046
protein stability index (Saccharomyces cerevisiae [1]; [4]): 0.375 ± 0.055
protein stability index (Saccharomyces cerevisiae [1]; [5]): 0.295 ± 0.035
protein stability index (Saccharomyces cerevisiae [1]; [6]): 0.467 ± 0.0072
protein stability index (Saccharomyces cerevisiae [1]; [7]): 0.302 ± 0.015
protein stability index (Saccharomyces cerevisiae [1]; [8]): 0.305 ± 0.006
protein stability index (Saccharomyces cerevisiae [1]; [9]): 0.442 ± 0.0058
protein stability index (Saccharomyces cerevisiae [2]): 0.437 ± 0.038

TLPIWLRVLIFG
protein stability index (Saccharomyces cerevisiae [1]; [3]): 0.341 ± 0.066
protein stability index (Saccharomyces cerevisiae [1]; [4]): 0.342 ± 0.038
protein stability index (Saccharomyces cerevisiae [1]; [5]): 0.295 ± 0.026
protein stability index (Saccharomyces cerevisiae [1]; [6]): 0.456 ± 0.0082
protein stability index (Saccharomyces cerevisiae [1]; [7]): 0.2762 ± 0.002
protein stability index (Saccharomyces cerevisiae [1]; [8]): 0.29 ± 0.0033
protein stability index (Saccharomyces cerevisiae [1]; [9]): 0.426 ± 0.014
protein stability index (Saccharomyces cerevisiae [2]): 0.404 ± 0.032

TLRINSPFYFLS
protein stability index (Saccharomyces cerevisiae [1]; [3]): 0.694 ± 0.058
protein stability index (Saccharomyces cerevisiae [1]; [4]): 0.703 ± 0.02
protein stability index (Saccharomyces cerevisiae [1]; [5]): 0.654 ± 0.019
protein stability index (Saccharomyces cerevisiae [1]; [6]): 0.7509 ± 0.0024
protein stability index (Saccharomyces cerevisiae [1]; [7]): 0.242 ± 0.011
protein stability index (Saccharomyces cerevisiae [1]; [8]): 0.282 ± 0.022
protein stability index (Saccharomyces cerevisiae [1]; [9]): 0.53 ± 0.021
protein stability index (Saccharomyces cerevisiae [2]): 0.419 ± 0.012

TLWWRQPFWGFG
protein stability index (Saccharomyces cerevisiae [1]; [3]): 0.731 ± 0.038
protein stability index (Saccharomyces cerevisiae [1]; [4]): 0.802 ± 0.0045
protein stability index (Saccharomyces cerevisiae [1]; [5]): 0.659 ± 0.013
protein stability index (Saccharomyces cerevisiae [1]; [6]): 0.8 ± 0.021
protein stability index (Saccharomyces cerevisiae [1]; [7]): 0.673 ± 0.0095
protein stability index (Saccharomyces cerevisiae [1]; [8]): 0.702 ± 0.013
protein stability index (Saccharomyces cerevisiae [1]; [9]): 0.781 ± 0.017
protein stability index (Saccharomyces cerevisiae [2]): 0.722 ± 0.042

TSRRPFVLVMWL
protein stability index (Saccharomyces cerevisiae [1]; [3]): 0.504 ± 0.0061
protein stability index (Saccharomyces cerevisiae [1]; [4]): 0.599 ± 0.0078
protein stability index (Saccharomyces cerevisiae [1]; [5]): 0.405 ± 0.04
protein stability index (Saccharomyces cerevisiae [1]; [6]): 0.6229 ± 0.0049
protein stability index (Saccharomyces cerevisiae [1]; [7]): 0.363 ± 0.011
protein stability index (Saccharomyces cerevisiae [1]; [8]): 0.388 ± 0.035
protein stability index (Saccharomyces cerevisiae [1]; [9]): 0.576 ± 0.027
protein stability index (Saccharomyces cerevisiae [2]): 0.485 ± 0.015

TTATLSFAICAV
protein stability index (Saccharomyces cerevisiae [1]; [3]): 0.412 ± 0.01
protein stability index (Saccharomyces cerevisiae [1]; [4]): 0.455 ± 0.012
protein stability index (Saccharomyces cerevisiae [1]; [5]): 0.315 ± 0.022
protein stability index (Saccharomyces cerevisiae [1]; [6]): 0.473 ± 0.0063
protein stability index (Saccharomyces cerevisiae [1]; [7]): 0.27 ± 0.0051
protein stability index (Saccharomyces cerevisiae [1]; [8]): 0.325 ± 0.022
protein stability index (Saccharomyces cerevisiae [1]; [9]): 0.452 ± 0.014
protein stability index (Saccharomyces cerevisiae [2]): 0.4276 ± 0.0029

TYKHIVRVNKCE
protein stability index (Saccharomyces cerevisiae [1]; [3]): 0.594 ± 0.031
protein stability index (Saccharomyces cerevisiae [1]; [4]): 0.684 ± 0.021
protein stability index (Saccharomyces cerevisiae [1]; [5]): 0.627 ± 0.033
protein stability index (Saccharomyces cerevisiae [1]; [6]): 0.727 ± 0.0073
protein stability index (Saccharomyces cerevisiae [1]; [7]): 0.179 ± 0.0066
protein stability index (Saccharomyces cerevisiae [1]; [8]): 0.184 ± 0.025
protein stability index (Saccharomyces cerevisiae [1]; [9]): 0.286 ± 0.0033
protein stability index (Saccharomyces cerevisiae [2]): 0.318 ± 0.04

TYSVIPSLALLP
protein stability index (Saccharomyces cerevisiae [1]; [3]): 0.664 ± 0.03
protein stability index (Saccharomyces cerevisiae [1]; [4]): 0.727 ± 0.013
protein stability index (Saccharomyces cerevisiae [1]; [5]): 0.643 ± 0.014
protein stability index (Saccharomyces cerevisiae [1]; [6]): 0.7298 ± 0.0043
protein stability index (Saccharomyces cerevisiae [1]; [7]): 0.648 ± 0.012
protein stability index (Saccharomyces cerevisiae [1]; [8]): 0.652 ± 0.032
protein stability index (Saccharomyces cerevisiae [1]; [9]): 0.704 ± 0.022
protein stability index (Saccharomyces cerevisiae [2]): 0.224 ± 0.051

VAGGFWCWGMVG
protein stability index (Saccharomyces cerevisiae [1]; [3]): 0.718 ± 0.034
protein stability index (Saccharomyces cerevisiae [1]; [4]): 0.782 ± 0.015
protein stability index (Saccharomyces cerevisiae [1]; [5]): 0.663 ± 0.0093
protein stability index (Saccharomyces cerevisiae [1]; [6]): 0.788 ± 0.013
protein stability index (Saccharomyces cerevisiae [1]; [7]): 0.392 ± 0.016
protein stability index (Saccharomyces cerevisiae [1]; [8]): 0.436 ± 0.024
protein stability index (Saccharomyces cerevisiae [1]; [9]): 0.677 ± 0.024
protein stability index (Saccharomyces cerevisiae [2]): 0.4642 ± 0.0023

VARWVYALGLLC
protein stability index (Saccharomyces cerevisiae [1]; [3]): 0.581 ± 0.035
protein stability index (Saccharomyces cerevisiae [1]; [4]): 0.6488 ± 0.0027
protein stability index (Saccharomyces cerevisiae [1]; [5]): 0.545 ± 0.028
protein stability index (Saccharomyces cerevisiae [1]; [6]): 0.677 ± 0.025
protein stability index (Saccharomyces cerevisiae [1]; [7]): 0.2 ± 0.0064
protein stability index (Saccharomyces cerevisiae [1]; [8]): 0.221 ± 0.011
protein stability index (Saccharomyces cerevisiae [1]; [9]): 0.377 ± 0.013
protein stability index (Saccharomyces cerevisiae [2]): 0.312 ± 0.013

VCCSILFSAFLV
protein stability index (Saccharomyces cerevisiae [1]; [3]): 0.614 ± 0.088
protein stability index (Saccharomyces cerevisiae [1]; [4]): 0.6552 ± 0.0051
protein stability index (Saccharomyces cerevisiae [1]; [5]): 0.532 ± 0.019
protein stability index (Saccharomyces cerevisiae [1]; [6]): 0.653 ± 0.001
protein stability index (Saccharomyces cerevisiae [1]; [7]): 0.4 ± 0.024
protein stability index (Saccharomyces cerevisiae [1]; [8]): 0.4 ± 0.012
protein stability index (Saccharomyces cerevisiae [1]; [9]): 0.549 ± 0.013
protein stability index (Saccharomyces cerevisiae [2]): 0.475 ± 0.041

VCDPWVFIRCLV
protein stability index (Saccharomyces cerevisiae [1]; [3]): 0.418 ± 0.015
protein stability index (Saccharomyces cerevisiae [1]; [4]): 0.57354 ± 0.00022
protein stability index (Saccharomyces cerevisiae [1]; [5]): 0.418 ± 0.031
protein stability index (Saccharomyces cerevisiae [1]; [6]): 0.6025 ± 0.0034
protein stability index (Saccharomyces cerevisiae [1]; [7]): 0.11 ± 0.0075
protein stability index (Saccharomyces cerevisiae [1]; [8]): 0.118 ± 0.032
protein stability index (Saccharomyces cerevisiae [1]; [9]): 0.104 ± 0.018
protein stability index (Saccharomyces cerevisiae [2]): 0.234 ± 0.1

VCLVAGVFFCLL
protein stability index (Saccharomyces cerevisiae [1]; [3]): 0.5 ± 0.018
protein stability index (Saccharomyces cerevisiae [1]; [4]): 0.587 ± 0.025
protein stability index (Saccharomyces cerevisiae [1]; [5]): 0.44 ± 0.018
protein stability index (Saccharomyces cerevisiae [1]; [6]): 0.638 ± 0.021
protein stability index (Saccharomyces cerevisiae [1]; [7]): 0.422 ± 0.017
protein stability index (Saccharomyces cerevisiae [1]; [8]): 0.449 ± 0.014
protein stability index (Saccharomyces cerevisiae [1]; [9]): 0.575 ± 0.013
protein stability index (Saccharomyces cerevisiae [2]): 0.629 ± 0.24

VCVAVCFVMCGG
protein stability index (Saccharomyces cerevisiae [1]; [3]): 0.36 ± 0.022
protein stability index (Saccharomyces cerevisiae [1]; [4]): 0.457 ± 0.023
protein stability index (Saccharomyces cerevisiae [1]; [5]): 0.324 ± 0.023
protein stability index (Saccharomyces cerevisiae [1]; [6]): 0.499 ± 0.018
protein stability index (Saccharomyces cerevisiae [1]; [7]): 0.276 ± 0.0083
protein stability index (Saccharomyces cerevisiae [1]; [8]): 0.305 ± 0.0087
protein stability index (Saccharomyces cerevisiae [1]; [9]): 0.464 ± 0.03
protein stability index (Saccharomyces cerevisiae [2]): 0.3721 ± 0.0011

VCVWVDILAFCS
protein stability index (Saccharomyces cerevisiae [1]; [3]): 0.0795 ± 0.016
protein stability index (Saccharomyces cerevisiae [1]; [4]): 0.245 ± 0.097
protein stability index (Saccharomyces cerevisiae [1]; [5]): 0.183 ± 0.026
protein stability index (Saccharomyces cerevisiae [1]; [6]): 0.278 ± 0.0048
protein stability index (Saccharomyces cerevisiae [1]; [7]): 0.147 ± 0.019
protein stability index (Saccharomyces cerevisiae [1]; [8]): 0.174 ± 0.019
protein stability index (Saccharomyces cerevisiae [1]; [9]): 0.252 ± 0.018
protein stability index (Saccharomyces cerevisiae [2]): 0.227 ± 0.05

VDVWRWRGLRVG
protein stability index (Saccharomyces cerevisiae [1]; [3]): 0.635 ± 0.029
protein stability index (Saccharomyces cerevisiae [1]; [4]): 0.73743 ± 0.00065
protein stability index (Saccharomyces cerevisiae [1]; [5]): 0.61 ± 0.013
protein stability index (Saccharomyces cerevisiae [1]; [6]): 0.7528 ± 0.00093
protein stability index (Saccharomyces cerevisiae [1]; [7]): 0.3592 ± 0.0023
protein stability index (Saccharomyces cerevisiae [1]; [8]): 0.414 ± 0.031
protein stability index (Saccharomyces cerevisiae [1]; [9]): 0.599 ± 0.0082
protein stability index (Saccharomyces cerevisiae [2]): 0.555 ± 0.11

VFAWSLYLRWAW
protein stability index (Saccharomyces cerevisiae [1]; [3]): 0.2813 ± 0.0012
protein stability index (Saccharomyces cerevisiae [1]; [4]): 0.287 ± 0.0065
protein stability index (Saccharomyces cerevisiae [1]; [5]): 0.362 ± 0.025
protein stability index (Saccharomyces cerevisiae [1]; [6]): 0.411 ± 0.011
protein stability index (Saccharomyces cerevisiae [1]; [7]): 0.481 ± 0.02
protein stability index (Saccharomyces cerevisiae [1]; [8]): 0.357 ± 0.017
protein stability index (Saccharomyces cerevisiae [1]; [9]): 0.384 ± 0.0076
protein stability index (Saccharomyces cerevisiae [2]): 0.489 ± 0.015
